PMC4432651, “Dynamic interplay between catalytic and lectin domains of GalNAc-transferases modulates protein O-glycosylation” (Nature Communications, 2015)

Target: polypeptide N-acetylgalactosaminyltransferase 2 (GalNAc-T2), K75-Q571 (UniProt Q10471)
Experiment: other fluorescence titration; tryptophan fluorescence quenching, 25 °C, GalNAc-T2 at 1 μM, peptides 1 to 500 μM, 25 mM Tris, 150 mM NaCl, pH 7.5; without UDP/Mn+2; single binding site model

Chain of polypeptide N-acetylgalactosaminyltransferase 2 (GalNAc-T2), K75-Q571 (Q10471 75-571): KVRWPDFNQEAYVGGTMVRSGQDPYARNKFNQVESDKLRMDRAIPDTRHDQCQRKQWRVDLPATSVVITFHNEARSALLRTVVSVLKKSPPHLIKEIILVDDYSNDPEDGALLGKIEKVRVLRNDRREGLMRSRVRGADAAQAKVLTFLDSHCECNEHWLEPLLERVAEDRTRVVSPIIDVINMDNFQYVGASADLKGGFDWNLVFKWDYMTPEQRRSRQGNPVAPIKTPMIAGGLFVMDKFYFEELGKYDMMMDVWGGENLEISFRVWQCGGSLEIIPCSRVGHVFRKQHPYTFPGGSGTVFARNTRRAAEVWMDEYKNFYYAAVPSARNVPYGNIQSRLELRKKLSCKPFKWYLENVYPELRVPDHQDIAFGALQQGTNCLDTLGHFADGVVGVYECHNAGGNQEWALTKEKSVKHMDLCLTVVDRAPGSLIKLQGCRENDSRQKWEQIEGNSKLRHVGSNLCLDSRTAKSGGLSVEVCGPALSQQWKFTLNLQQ

fold change of Kd, without UDP/Mn+2 against with UDP/Mn+2: 4 fold
Substance: MUC5AC peptide (naked)
